Reference: patent US20160024487

Experiments:
[1] = tested on: T1, Lys(Dnp)-ATNATX4X3PRIVGG-Lys(Abz), X4 = D, X3 = F
T1 sequence: KATNATDFPRIVGGK

[2] = tested on: T2, Lys(Dnp)-ATNATX4X3PRIVGG-Lys(Abz), X4 = D, X3 = G
T2 sequence: KATNATDGPRIVGGK

[3] = tested on: T3, Lys(Dnp)-ATNATX4X3PRIVGG-Lys(Abz), X4 = E, X3 = A
T3 sequence: KATNATEAPRIVGGK

[4] = tested on: T4, Lys(Dnp)-ATNATX4X3PRIVGG-Lys(Abz), X4 = E, X3 = F
T4 sequence: KATNATEFPRIVGGK

[5] = tested on: T5, Lys(Dnp)-ATNATX4X3PRIVGG-Lys(Abz), X4 = E, X3 = K
T5 sequence: KATNATEKPRIVGGK

[6] = tested on: T6, Lys(Dnp)-ATNATX4X3PRIVGG-Lys(Abz), X4 = E, X3 = W
T6 sequence: KATNATEWPRIVGGK

[7] = tested on: T7, Lys(Dnp)-ATNATX4X3PRIVGG-Lys(Abz), X4 = F, X3 = D
T7 sequence: KATNATFDPRIVGGK

[8] = tested on: T8, Lys(Dnp)-ATNATX4X3PRIVGG-Lys(Abz), X4 = G, X3 = I
T8 sequence: KATNATGIPRIVGGK

[9] = tested on: T9, Lys(Dnp)-ATNATX4X3PRIVGG-Lys(Abz), X4 = G, X3 = K
T9 sequence: KATNATGKPRIVGGK

[10] = tested on: T10, Lys(Dnp)-ATNATX4X3PRIVGG-Lys(Abz), X4 = G, X3 = P
T10 sequence: KATNATGPPRIVGGK

[11] = tested on: T11, Lys(Dnp)-ATNATX4X3PRIVGG-Lys(Abz), X4 = G, X3 = R
T11 sequence: KATNATGRPRIVGGK

[12] = tested on: T12, Lys(Dnp)-ATNATX4X3PRIVGG-Lys(Abz), X4 = H, X3 = A
T12 sequence: KATNATHAPRIVGGK

[13] = tested on: T13, Lys(Dnp)-ATNATX4X3PRIVGG-Lys(Abz), X4 = H, X3 = K
T13 sequence: KATNATHKPRIVGGK

[14] = tested on: T14, Lys(Dnp)-ATNATX4X3PRIVGG-Lys(Abz), X4 = H, X3 = Q
T14 sequence: KATNATHQPRIVGGK

[15] = tested on: T15, Lys(Dnp)-ATNATX4X3PRIVGG-Lys(Abz), X4 = H, X3 = R
T15 sequence: KATNATHRPRIVGGK

[16] = tested on: T16, Lys(Dnp)-ATNATX4X3PRIVGG-Lys(Abz), X4 = H, X3 = W
T16 sequence: KATNATHWPRIVGGK

[17] = tested on: T17, Lys(Dnp)-ATNATX4X3PRIVGG-Lys(Abz), X4 = H, X3 = Y
T17 sequence: KATNATHYPRIVGGK

[18] = tested on: T18, Lys(Dnp)-ATNATX4X3PRIVGG-Lys(Abz), X4 = M, X3 = E
T18 sequence: KATNATMEPRIVGGK

[19] = tested on: T19, Lys(Dnp)-ATNATX4X3PRIVGG-Lys(Abz), X4 = N, X3 = F
T19 sequence: KATNATNFPRIVGGK

[20] = tested on: T20, Lys(Dnp)-ATNATX4X3PRIVGG-Lys(Abz), X4 = N, X3 = G
T20 sequence: KATNATNGPRIVGGK

[21] = tested on: T21, Lys(Dnp)-ATNATX4X3PRIVGG-Lys(Abz), X4 = N, X3 = S
T21 sequence: KATNATNSPRIVGGK

[22] = tested on: T22, Lys(Dnp)-ATNATX4X3PRIVGG-Lys(Abz), X4 = N, X3 = T
T22 sequence: KATNATNTPRIVGGK

[23] = tested on: T23, Lys(Dnp)-ATNATX4X3PRIVGG-Lys(Abz), X4 = N, X3 = V
T23 sequence: KATNATNVPRIVGGK

[24] = tested on: T24, Lys(Dnp)-ATNATX4X3PRIVGG-Lys(Abz), X4 = N, X3 = Y
T24 sequence: KATNATNYPRIVGGK

[25] = tested on: T25, Lys(Dnp)-ATNATX4X3PRIVGG-Lys(Abz), X4 = P, X3 = P
T25 sequence: KATNATPPPRIVGGK

[26] = tested on: T26, Lys(Dnp)-ATNATX4X3PRIVGG-Lys(Abz), X4 = Q, X3 = M
T26 sequence: KATNATQMPRIVGGK

[27] = tested on: T27, Lys(Dnp)-ATNATX4X3PRIVGG-Lys(Abz), X4 = Q, X3 = V
T27 sequence: KATNATQVPRIVGGK

[28] = tested on: T28, Lys(Dnp)-ATNATX4X3PRIVGG-Lys(Abz), X4 = S, X3 = A
T28 sequence: KATNATSAPRIVGGK

[29] = tested on: T29, Lys(Dnp)-ATNATX4X3PRIVGG-Lys(Abz), X4 = S, X3 = F
T29 sequence: KATNATSFPRIVGGK

[30] = tested on: T30, Lys(Dnp)-ATNATX4X3PRIVGG-Lys(Abz), X4 = S, X3 = M
T30 sequence: KATNATSMPRIVGGK

[31] = tested on: T31, Lys(Dnp)-ATNATX4X3PRIVGG-Lys(Abz), X4 = S, X3 = T
T31 sequence: KATNATSTPRIVGGK

[32] = tested on: T32, Lys(Dnp)-ATNATX4X3PRIVGG-Lys(Abz), X4 = S, X3 = W
T32 sequence: KATNATSWPRIVGGK

[33] = tested on: T33, Lys(Dnp)-ATNATX4X3PRIVGG-Lys(Abz), X4 = T, X3 = E
T33 sequence: KATNATTEPRIVGGK

[34] = tested on: T34, Lys(Dnp)-ATNATX4X3PRIVGG-Lys(Abz), X4 = T, X3 = F
T34 sequence: KATNATTFPRIVGGK

[35] = tested on: T35, Lys(Dnp)-ATNATX4X3PRIVGG-Lys(Abz), X4 = T, X3 = G
T35 sequence: KATNATTGPRIVGGK

[36] = tested on: T36, Lys(Dnp)-ATNATX4X3PRIVGG-Lys(Abz), X4 = T, X3 = V
T36 sequence: KATNATTVPRIVGGK

[37] = tested on: T37, Lys(Dnp)-ATNATX4X3PRIVGG-Lys(Abz), X4 = V, X3 = D
T37 sequence: KATNATVDPRIVGGK

[38] = tested on: T38, Lys(Dnp)-ATNATX4X3PRIVGG-Lys(Abz), X4 = Y, X3 = D
T38 sequence: KATNATYDPRIVGGK

[39] = tested on: T39, Lys(Dnp)-ATNATX4X3PRIVGG-Lys(Abz), X4 = Y, X3 = E
T39 sequence: KATNATYEPRIVGGK

Human plasma purified Factor Xa
FXa kcat/KM [1]: 11 M⁻¹ s⁻¹
FXa kcat/KM [2]: 5.8 M⁻¹ s⁻¹
FXa kcat/KM [3]: 4.3 M⁻¹ s⁻¹
FXa kcat/KM [4]: 14 M⁻¹ s⁻¹
FXa kcat/KM [5]: 7.9 M⁻¹ s⁻¹
FXa kcat/KM [6]: 8 M⁻¹ s⁻¹
FXa kcat/KM [7]: 63 M⁻¹ s⁻¹
FXa kcat/KM [8]: 88 M⁻¹ s⁻¹
FXa kcat/KM [9]: 34 M⁻¹ s⁻¹
FXa kcat/KM [10]: 7.5 M⁻¹ s⁻¹
FXa kcat/KM [11]: 130 M⁻¹ s⁻¹
FXa kcat/KM [12]: 53 M⁻¹ s⁻¹
FXa kcat/KM [13]: 28 M⁻¹ s⁻¹
FXa kcat/KM [14]: 160 M⁻¹ s⁻¹
FXa kcat/KM [15]: 140 M⁻¹ s⁻¹
FXa kcat/KM [16]: 320 M⁻¹ s⁻¹
FXa kcat/KM [17]: 41 M⁻¹ s⁻¹
FXa kcat/KM [18]: 600 M⁻¹ s⁻¹
FXa kcat/KM [19]: 14 M⁻¹ s⁻¹
FXa kcat/KM [20]: 9.2 M⁻¹ s⁻¹
FXa kcat/KM [21]: 16 M⁻¹ s⁻¹
FXa kcat/KM [22]: 15 M⁻¹ s⁻¹
FXa kcat/KM [23]: 17 M⁻¹ s⁻¹
FXa kcat/KM [24]: 15 M⁻¹ s⁻¹
FXa kcat/KM [25]: 14 M⁻¹ s⁻¹
FXa kcat/KM [26]: 2200 M⁻¹ s⁻¹
FXa kcat/KM [27]: 430 M⁻¹ s⁻¹
FXa kcat/KM [28]: 19 M⁻¹ s⁻¹
FXa kcat/KM [29]: 17 M⁻¹ s⁻¹
FXa kcat/KM [30]: 46 M⁻¹ s⁻¹
FXa kcat/KM [31]: 32 M⁻¹ s⁻¹
FXa kcat/KM [32]: 43 M⁻¹ s⁻¹
FXa kcat/KM [33]: 15 M⁻¹ s⁻¹
FXa kcat/KM [34]: 22 M⁻¹ s⁻¹
FXa kcat/KM [35]: 21 M⁻¹ s⁻¹
FXa kcat/KM [36]: 20 M⁻¹ s⁻¹
FXa kcat/KM [37]: 70 M⁻¹ s⁻¹
FXa kcat/KM [38]: 36 M⁻¹ s⁻¹
FXa kcat/KM [39]: 54 M⁻¹ s⁻¹
